In assay [1] the target is T1, Human Tau 2N4R, wild type, recombinant full length (human, UniProt P10636 2-758).
T1 construct: Full length 2N4R isoform; monomer in SPR and ELISA; heparin-induced aggregates or seeds in the functional assays; also called Tau441; Tau-441
Kind of assay: SPR BIAcore, mAb captured by anti-human IgG, Tau flowed, 1:1 Langmuir. On the procedure:
(§1) All experiments were performed using a BIAcore™ T-100 instrument (GE Healthcare). 10 μL anti-human IgG (monoclonal mouse anti-human Fc) from human antibody capture kit (GE Healthcare) was diluted to 25 μL/mL in 200 μL final immobilization buffer (10 mM sodium acetate, pH 5.0). The flow rate was set to 5 μL/min, flowpath 1. Fifty μL N-hydroxysuccinamide (NETS) and 50 μL 1-ethyl-3-(3-dimethylaminopropyl) carbidiimide (EDC) were mixed and injected for 420 sec to activate the CM5 chip surface. The diluted antibody was injected for 360 seconds followed by 1 M ethanolamine for 420 seconds. The flowpath was then switched to flowpath 2. A new EDC/NHS mixture was prepared and the procedure was repeated for flow cell 2. The surface was conditioned by 2 injections of 30 sec using flowpath 1, 2 at 30 μL/min of 3M MgCl₂. For the anti-mouse surface, 10 μL anti-mouse IgG (polyclonal rabbit anti-mouse IgG) from mouse antibody capture kit (GE Healthcare) was diluted to 30 μL/mL in 324 μL final immobilization buffer (10 mM sodium acetate, pH 5.0). The flow rate was set to 5 μL/min, flowpath 3. Fifty μL NHS and 50 μL EDC were mixed and injected for 420 sec to activate the chip surface. The diluted antibody was injected for 420 sec. 1 M ethanolamine was injected for 420 sec. Flow path was switched to flowpath 4. A new EDC/NHS mixture was prepared and the procedure was repeated for flow cell 4. The surface was conditioned by 2 injections of 30 sec using flowpath 3, 4 at 30 μL/min of 10 mM glycine, pH 1.7.
(§2) Binding of humanized and mouse antibodies were analyzed by surface plasmon resonance (BIAcore™) to determine their relative association rates (kₐ), dissociation rates (kd), and equilibrium binding constants (KD). Anti-mouse or anti-human antibodies were immobilized on a CM5 chip and sample mAbs were captured on the chip. 2N4R Tau was flowed over the chip and binding observed. The binding constants kₐ, kd, and KD were determined using a 1:1 Langmuir fitting model.
For orientation: Surface plasmon resonance follows binding to a sensor surface in real time, without labels.

For assay [2], the target named is T1, Human Tau 2N4R, wild type, recombinant …. The description is as above. On the procedure: as §1
as §2, with “BIAcore™” for “surface plasmon resonance (BIAcore™)”, “(ka),” for “(kₐ),”, “model. Both 7G6-HCzu12-based mAbs had similar kₐ and kd values (Table 8). However, the kₐ of 7G6-HCzu11 was decreased, though the kd was unaffected. Therefore, human residues in the Vh3 framework impact binding to Tau.” for “model.”
The source holds these as a separate data set.

Substitutions are numbered along the chain they refer to. Several values for one entry are separate records, joined by “and”; a condition that tells them apart may be missing. Identical values can stand only once. Like-named read-outs stand apart in the source and are kept apart here.

T1 sequence (P10636 other isoform, or with tags, fused parts or gaps limits assumed): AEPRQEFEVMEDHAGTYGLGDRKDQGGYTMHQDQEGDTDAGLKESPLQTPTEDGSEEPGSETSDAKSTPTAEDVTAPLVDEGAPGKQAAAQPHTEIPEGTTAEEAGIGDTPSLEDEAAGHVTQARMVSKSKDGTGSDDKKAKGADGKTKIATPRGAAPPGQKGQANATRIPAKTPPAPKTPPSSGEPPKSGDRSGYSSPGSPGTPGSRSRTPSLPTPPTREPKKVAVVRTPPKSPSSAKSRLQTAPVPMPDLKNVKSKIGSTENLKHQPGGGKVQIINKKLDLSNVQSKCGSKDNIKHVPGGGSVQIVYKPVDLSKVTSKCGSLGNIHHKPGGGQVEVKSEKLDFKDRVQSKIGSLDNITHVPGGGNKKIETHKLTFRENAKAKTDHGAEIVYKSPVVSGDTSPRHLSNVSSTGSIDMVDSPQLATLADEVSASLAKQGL

B1: 7G6-HCzu5-LCzu10 (antibody, human IgG1, kappa, V domains shown)
VH: QVQLVQSGAEVKKPGASVKVSCKASGYTFTTYWITWVRQAPGQGLEWMGDIYPGSSISNYNEKFKSRVTMTVDTSTSTAYMELSSLRSEDTAVYYCAREDGYDAWFAYWGQGTLVTVSS
VL: DVVMTQSPLSLPVTLGQPASISCRSSQSIVHSNGNTYLEWFQQRPGQSPRRLIYKVSNRFSGVPDRFSGSGSGTDFTLKISRVEAEDVGVYYCFQGSHVPFTFGQGTKLEIKR
notes: humanized, human IgG1 kappa
As a reminder, the Kd is the equilibrium constant for the complex coming apart. What is called koff is the first-order rate constant of dissociation. Broadly, the kon is the second-order rate constant of association. In the case of B1, in assay [1], the equilibrium dissociation constant (Kd) amounted to 0.162 nM, the koff is 0.00053 s⁻¹ and the kon is 3.27e+06 M⁻¹ s⁻¹.

B2: 7G6-HCzu5-LCzu21 (antibody, human IgG1, kappa, V domains shown)
VH: B1 VH
VL: B1 VL with V30L, R51L, Y54S
notes: humanized, human IgG1 kappa
In the case of B2, in assay [1], the Kd was 0.095 nM, the koff was 0.000278 s⁻¹ and the kon was found to be 2.93e+06 M⁻¹ s⁻¹.

B3: 7G6-HCzu5-LCzu22 (antibody, human IgG1, kappa, V domains shown)
VH: B1 VH
VL: B1 VL with V30L, F41Y, Y54S
notes: humanized, human IgG1 kappa; also called 7G6-LCzu22
Turning to B3, in assay [1], the Kd worked out at 1.48 nM, the koff was 0.00277 s⁻¹ and the kon worked out at 1.88e+06 M⁻¹ s⁻¹.

B4: 7G6-HCzu7-LCzu6 (antibody, human IgG1, kappa, V domains shown)
VH: B1 VH with N61A, E62Q, K65Q, S66G, A79V
VL: B1 VL with V30L, F41Y, R51L, Y54S
notes: humanized, human IgG1 kappa
B4: in assay [1], the Kd amounted to 0.109 nM, the koff is 0.000226 s⁻¹ and the kon amounted to 2.08e+06 M⁻¹ s⁻¹.

B5: 7G6-HCzu6-LCzu6 (antibody, human IgG1, kappa, V domains shown)
VH: B1 VH with A79V
VL: B1 VL with V30L, F41Y, R51L, Y54S
notes: humanized, human IgG1 kappa
In the case of B5, in assay [1], the Kd came to 0.0961 nM, the koff is 0.000213 s⁻¹ and the kon came out at 2.21e+06 M⁻¹ s⁻¹.

B6: 7G6-HCzu9-LCzu6 (antibody, human IgG1, kappa, V domains shown)
VH: B1 VH with S58C, N61A, E62Q, K65Q, S66G, A79V
VL: B1 VL with V30L, F41Y, R51L, Y54S
notes: humanized, human IgG1 kappa
With B6, in assay [1], the equilibrium dissociation constant (Kd) turned out to be 0.0938 nM, the koff is 0.000193 s⁻¹ and the on-rate constant (kon) was found to be 2.06e+06 M⁻¹ s⁻¹.

B7: 7G6-HCzu10-LCzu6 (antibody, human IgG1, kappa, V domains shown)
VH: B1 VH with S58C, N61A, E62Q, K65Q, S66G, V72R, A79V
VL: B1 VL with V30L, F41Y, R51L, Y54S
notes: humanized, human IgG1 kappa
Consider B7, for which, in assay [1], the Kd is 0.108 nM, the koff was 0.000213 s⁻¹ and the kon was found to be 1.98e+06 M⁻¹ s⁻¹.

B8: 7G6-HCzu17-LCzu12 (antibody, human IgG1, kappa, V domains shown)
VH: EVQLLESGGGLVQPGGSLRLSCAASGYTFTTYWITWVRQAPGKGLEWVSDIYPGSSICNYNEKFKSRFTISVDNSKNTLYLQMNSLRAEDTAVYYCAREDGYDAWFAYWGQGTLVTVSS
VL: DVQMTQSPSSLSASVGDRVTITCRSSQSILHSNGNTYLEWYQQKPGKAPKLLICKVSNRFSGVPSRFSGSGSGTDFTLTISSLQPEDFATYYCFQGSHVPFTFGQGTKLEIKR
notes: humanized, human IgG1 kappa
As to B8, in assay [2], the Kd came out at 0.073 nM, the koff was determined as 0.000124 s⁻¹ and the kon came to 1.7e+06 M⁻¹ s⁻¹.

B9: 7G6-HCzu12-LCzu14 (antibody, human IgG1, kappa)
heavy: not shown
light: DIQMTQSPSSLSASVGDRVTITCRSSQSILHSNGNTYLEWYQQKPGKAPKLLICKVSNRFSGVPSRFSGSGSGTDFTLTISSLQPEDFATYYCFQGSHVPFTFGQGTKLEIKRTVAAPSVFIFPPSDEQLKSGTASVVCLLNNFYPREAKVQWKVDNALQSGNSQESVTEQDSKDSTYSLSSTLTLSKADYEKHKVYACEVTHQGLSSPVTKSFNRGEC
notes: humanized, human IgG1 kappa
Take B9: in assay [2], the Kd turned out to be 0.0689 nM, the koff was determined as 0.000119 s⁻¹ and the kon is 1.73e+06 M⁻¹ s⁻¹.

B10: 7G6-HCzu12-LCzu13 (antibody, human IgG1, kappa)
heavy: not shown
light: B9 light with I2V, C54Y
notes: humanized, human IgG1 kappa
As to B10, in assay [2], the Kd is 0.0888 nM, the koff was determined as 0.000124 s⁻¹ and the kon turned out to be 1.4e+06 M⁻¹ s⁻¹.

B11: 7G6-HCzu13-LCzu12 (antibody, human IgG1, kappa, V domains shown)
VH: B8 VH with S49G, N61A, E62D, K63S, F64V, S66G, N77S, L79A
VL: B8 VL
notes: humanized, human IgG1 kappa
Consider B11, for which, in assay [2], the Kd was 0.168 nM, the koff was found to be 0.000239 s⁻¹ and the kon stood at 1.42e+06 M⁻¹ s⁻¹.

B12: 7G6-HCzu20-LCzu12 (antibody, human IgG1, kappa, V domains shown)
VH: B8 VH with N61A, E62D, S66G, V72R, R98K
VL: B8 VL
notes: humanized, human IgG1 kappa
Consider B12, for which, in assay [2], the Kd is 0.119 nM, the koff amounted to 0.000136 s⁻¹ and the kon came to 1.14e+06 M⁻¹ s⁻¹.

B13: 7G6-HCzu12-LCzu16 (antibody, human IgG1, kappa, V domains shown)
VH: B8 VH with S49G, N77S, L79A
VL: B8 VL with L30V, C54S
notes: humanized, human IgG1 kappa
Turning to B13, in assay [2], the Kd worked out at 0.099 nM, the koff worked out at 0.000148 s⁻¹ and the kon worked out at 1.49e+06 M⁻¹ s⁻¹.

B14: 7G6-HCzu16-LCzu12 (antibody, human IgG1, kappa, V domains shown)
VH: B8 VH with L79A
VL: B8 VL
notes: humanized, human IgG1 kappa
For B14, in assay [2], the Kd is 0.114 nM, the koff amounted to 0.000174 s⁻¹ and the kon was found to be 1.53e+06 M⁻¹ s⁻¹.

B15: 7G6-HCzu19-LCzu12 (antibody, human IgG1, kappa, V domains shown)
VH: B8 VH with N61A, E62D, S66G, V72R
VL: B8 VL
notes: humanized, human IgG1 kappa
For B15, in assay [2], the Kd came out at 0.121 nM, the koff is 0.000152 s⁻¹ and the kon came to 1.25e+06 M⁻¹ s⁻¹.

B16: 7G6-HCzu12-LCzu12 (antibody, human IgG1, kappa)
heavy: not shown
light: B9 light with I2V
notes: humanized, human IgG1 kappa
Turning to B16, in assay [2], the dissociation constant (Kd) is 0.129 nM and 0.0875 nM; the koff was 0.000193 s⁻¹ and 0.000151 s⁻¹; the kon was 1.49e+06 M⁻¹ s⁻¹ and 1.72e+06 M⁻¹ s⁻¹.

B17: 7G6-HCzu12-LCzu11 (antibody, human IgG1, kappa)
heavy: not shown
light: B9 light with C54Y
notes: humanized, human IgG1 kappa
In the case of B17, in assay [2], the Kd came to 0.132 nM, the koff turned out to be 0.000181 s⁻¹ and the kon is 1.38e+06 M⁻¹ s⁻¹.

B18: 7G6-HCzu14-LCzu12 (antibody, human IgG1, kappa, V domains shown)
VH: B8 VH with S49G, N61A, E62D, S66G, N77S, L79A
VL: B8 VL
notes: humanized, human IgG1 kappa
For B18, in assay [2], the Kd is 0.133 nM, the koff came out at 0.000194 s⁻¹ and the association rate constant (kon) amounted to 1.46e+06 M⁻¹ s⁻¹.

B19: 7G6-HCzu15-LCzu12 (antibody, human IgG1, kappa, V domains shown)
VH: B8 VH with S49G, L79A
VL: B8 VL
notes: humanized, human IgG1 kappa
In the case of B19, in assay [2], the Kd was determined as 0.138 nM, the koff came to 0.000278 s⁻¹ and the kon was found to be 2.02e+06 M⁻¹ s⁻¹.

B20: 7G6-HCzu11-LCzu11 (antibody, human IgG1, kappa, V domains shown)
VH: B8 VH with V72R, R98K
VL: B8 VL with V2I, C54Y
notes: humanized, human IgG1 kappa
Turning to B20, in assay [2], the Kd is 0.205 nM, the koff is 0.000175 s⁻¹ and the kon amounted to 853000 M⁻¹ s⁻¹.

B21: 7G6-HCzu12-LCzu15 (antibody, human IgG1, kappa, V domains shown)
VH: B8 VH with S49G, N77S, L79A
VL: B8 VL with C54S
notes: humanized, human IgG1 kappa
In the case of B21, in assay [2], the dissociation constant Kd amounted to 0.0959 nM, the koff was found to be 0.000141 s⁻¹ and the on-rate (kon) came to 1.47e+06 M⁻¹ s⁻¹.

B22: 7G6-HCzu18-LCzu12 (antibody, human IgG1, kappa, V domains shown)
VH: B8 VH with V72R
VL: B8 VL
notes: humanized, human IgG1 kappa
Regarding B22, in assay [2], the equilibrium dissociation constant (Kd) was 0.0815 nM, the koff was determined as 0.000128 s⁻¹ and the kon came out at 1.57e+06 M⁻¹ s⁻¹.

Values taken from US20190112365A1 (EISAI R AND D MANAGEMENT, published 2019).
